Experimental data: the supplement of paper PMC10567573

B1: FBXO39 (parent)
chain: RVFKARIYTNRYETNEEDKTLQEI

Variants of: B1
Assay: protein stability index of a GFP-peptide fusion (GPS, HEK-293T) (PSI 1-6); higher = more stable
Conditions: c terminus: a fixed tail appended
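Further: lentivirally expressed fusions sorted by FACS into six bins by GFP to DsRed ratio, PSI derived from sequencing read proportions per bin multiplied by bin number.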

Variant | protein stability index
RVFKARHYTNRYETNEEDKTLQEI [I7H] | 2.54
RVFKARKYTNRYETNEEDKTLQEI [I7K] | 2.24
RVFKARLYTNRYETNEEDKTLQEI [I7L] | 2.9
RVFKARMYTNRYETNEEDKTLQEI [I7M] | 2.67
RVFKARNYTNRYETNEEDKTLQEI [I7N] | 2.7
RVFKARPYTNRYETNEEDKTLQEI [I7P] | 4.12
RVFKARQYTNRYETNEEDKTLQEI [I7Q] | 2.74
RVFKARRYTNRYETNEEDKTLQEI [I7R] | 2.43
RVFKARSYTNRYETNEEDKTLQEI [I7S] | 3.39
RVFKARTYTNRYETNEEDKTLQEI [I7T] | 3
RVFKARWYTNRYETNEEDKTLQEI [I7W] | 3.15
RVFKARYYTNRYETNEEDKTLQEI [I7Y] | 2.39
RVFKARIATNRYETNEEDKTLQEI [Y8A] | 3.84
RVFKARICTNRYETNEEDKTLQEI [Y8C] | 3.78
RVFKARIDTNRYETNEEDKTLQEI [Y8D] | 4.51
RVFKARIETNRYETNEEDKTLQEI [Y8E] | 3.93
RVFKARIFTNRYETNEEDKTLQEI [Y8F] | 2.91
RVFKARIGTNRYETNEEDKTLQEI [Y8G] | 3.46
RVFKARIHTNRYETNEEDKTLQEI [Y8H] | 3.27
RVFKARIITNRYETNEEDKTLQEI [Y8I] | 2.73
RVFKARIKTNRYETNEEDKTLQEI [Y8K] | 3.22
RVFKARILTNRYETNEEDKTLQEI [Y8L] | 3.21
RVFKARIMTNRYETNEEDKTLQEI [Y8M] | 2.77
RVFKARINTNRYETNEEDKTLQEI [Y8N] | 3.97

Variant | protein stability index
RVFKARIPTNRYETNEEDKTLQEI [Y8P] | 2.45
RVFKARIQTNRYETNEEDKTLQEI [Y8Q] | 2.77
RVFKARIRTNRYETNEEDKTLQEI [Y8R] | 3.15
RVFKARISTNRYETNEEDKTLQEI [Y8S] | 3.13
RVFKARITTNRYETNEEDKTLQEI [Y8T] | 2.93
RVFKARIVTNRYETNEEDKTLQEI [Y8V] | 3.08
RVFKARIWTNRYETNEEDKTLQEI [Y8W] | 2.16
RVFKARIYANRYETNEEDKTLQEI [T9A] | 3.18
RVFKARIYDNRYETNEEDKTLQEI [T9D] | 3.38
RVFKARIYENRYETNEEDKTLQEI [T9E] | 3.24
RVFKARIYFNRYETNEEDKTLQEI [T9F] | 1.82
RVFKARIYGNRYETNEEDKTLQEI [T9G] | 2.49
RVFKARIYHNRYETNEEDKTLQEI [T9H] | 2.47
RVFKARIYINRYETNEEDKTLQEI [T9I] | 2.21
RVFKARIYKNRYETNEEDKTLQEI [T9K] | 3.08
RVFKARIYLNRYETNEEDKTLQEI [T9L] | 2.54
RVFKARIYMNRYETNEEDKTLQEI [T9M] | 3.24
RVFKARIYNNRYETNEEDKTLQEI [T9N] | 2.87
RVFKARIYPNRYETNEEDKTLQEI [T9P] | 3.15
RVFKARIYQNRYETNEEDKTLQEI [T9Q] | 2.73
RVFKARIYRNRYETNEEDKTLQEI [T9R] | 3.04
RVFKARIYSNRYETNEEDKTLQEI [T9S] | 2.18
RVFKARIYVNRYETNEEDKTLQEI [T9V] | 2.32
RVFKARIYWNRYETNEEDKTLQEI [T9W] | 1.92

Variant | protein stability index
RVFKARIYYNRYETNEEDKTLQEI [T9Y] | 2.16
RVFKARIYTARYETNEEDKTLQEI [N10A] | 2.31
RVFKARIYTCRYETNEEDKTLQEI [N10C] | 2.29
RVFKARIYTDRYETNEEDKTLQEI [N10D] | 2.61
RVFKARIYTERYETNEEDKTLQEI [N10E] | 3.31
RVFKARIYTFRYETNEEDKTLQEI [N10F] | 1.93
RVFKARIYTGRYETNEEDKTLQEI [N10G] | 2.75
RVFKARIYTHRYETNEEDKTLQEI [N10H] | 2.82
RVFKARIYTIRYETNEEDKTLQEI [N10I] | 2.73
RVFKARIYTKRYETNEEDKTLQEI [N10K] | 3.01
RVFKARIYTLRYETNEEDKTLQEI [N10L] | 2.11
RVFKARIYTMRYETNEEDKTLQEI [N10M] | 3.04
RVFKARIYTPRYETNEEDKTLQEI [N10P] | 2.21
RVFKARIYTQRYETNEEDKTLQEI [N10Q] | 3.36
RVFKARIYTRRYETNEEDKTLQEI [N10R] | 2.6
RVFKARIYTSRYETNEEDKTLQEI [N10S] | 3.06
RVFKARIYTTRYETNEEDKTLQEI [N10T] | 2.45
RVFKARIYTVRYETNEEDKTLQEI [N10V] | 2.15
RVFKARIYTWRYETNEEDKTLQEI [N10W] | 2.2
RVFKARIYTNAYETNEEDKTLQEI [R11A] | 2.01
RVFKARIYTNCYETNEEDKTLQEI [R11C] | 2.05
RVFKARIYTNDYETNEEDKTLQEI [R11D] | 3.23
RVFKARIYTNEYETNEEDKTLQEI [R11E] | 3.57
RVFKARIYTNGYETNEEDKTLQEI [R11G] | 3.36

Variant | protein stability index
RVFKARIYTNHYETNEEDKTLQEI [R11H] | 2.34
RVFKARIYTNIYETNEEDKTLQEI [R11I] | 2.46
RVFKARIYTNKYETNEEDKTLQEI [R11K] | 2.88
RVFKARIYTNLYETNEEDKTLQEI [R11L] | 2.59
RVFKARIYTNMYETNEEDKTLQEI [R11M] | 2.93
RVFKARIYTNNYETNEEDKTLQEI [R11N] | 2.53
RVFKARIYTNPYETNEEDKTLQEI [R11P] | 3.36
RVFKARIYTNQYETNEEDKTLQEI [R11Q] | 3.2
RVFKARIYTNSYETNEEDKTLQEI [R11S] | 3.38
RVFKARIYTNTYETNEEDKTLQEI [R11T] | 3.75
RVFKARIYTNVYETNEEDKTLQEI [R11V] | 2.18
RVFKARIYTNWYETNEEDKTLQEI [R11W] | 2.19
RVFKARIYTNYYETNEEDKTLQEI [R11Y] | 2.5
RVFKARIYTNRAETNEEDKTLQEI [Y12A] | 3.15
RVFKARIYTNRCETNEEDKTLQEI [Y12C] | 2.07
RVFKARIYTNRDETNEEDKTLQEI [Y12D] | 3.89
RVFKARIYTNREETNEEDKTLQEI [Y12E] | 3.58
RVFKARIYTNRFETNEEDKTLQEI [Y12F] | 3.33
RVFKARIYTNRGETNEEDKTLQEI [Y12G] | 3.13
RVFKARIYTNRHETNEEDKTLQEI [Y12H] | 2.79
RVFKARIYTNRIETNEEDKTLQEI [Y12I] | 3.29
RVFKARIYTNRKETNEEDKTLQEI [Y12K] | 2.99
